Results taken from publication PMC7911018.

Target: C8-αGFP chimera (anti-GFP CDRs grafted into the C8WT scaffold) fused to mCherry
Experiment: SEC; gel filtration after IMAC on Superdex 75 10/30 in PBS, pH 7.4, 1 mM DTT

stoichiometry N: 2
B1: C8-αGFP chimera (anti-GFP CDRs grafted into the C8WT scaffold) fused to mCherry (VHH)
VHH: DVQLQASGGGLAQPGGSLRLSCAASGFPVNRYSMYWVRQAPGKGLEWVSSISSAGDRSSYYADSVKGRFTISRDNAKNTLYLQMNSLKLEDTALYFCAVNVGFEGQGTQVTVSS
